Reference: patent publication US20140186363A1 (UNIVERSITY OF ZURICH, published 2014)

Legend:
MAGEA3 peptide no 1 = molecular target: T1, MAGEA3 peptide no 1; experiment: peptide ELISA (coated 20mer)
T1 construct: also called MAGEA3 aa 1-20
T1 peptide: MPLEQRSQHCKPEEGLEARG
Method: (§1) 20mer peptides spanning the entire MAGEA3 protein with 10 aa overlaps shared by each adjacent peptide (Peptides&Elephants, Nuthetal, Germany) were used to coat Maxisorp ELISA plates (Nunc, Rochester, N.Y.). As control a 20mer peptide representing amino acids 40-21 from the NY-ESO-1 protein was used (rev). The numbering of amino acids of MAGEA3 is based on SEQ ID No:41.
(§2) Human recombinant antibody was used at a concentration of 1 μg/ml. Bound human antibody was detected using horseradish peroxidase-conjugated goat anti-human IgG Fc-gamma specific antibodies (Jackson ImmunoResearch, Europe Ltd., Cambridgeshire, UK).

MAGEA3 peptide no 13 = molecular target: T2, MAGEA3 peptide no 13; experiment: peptide ELISA (coated 20mer)
T2 construct: also called MAGEA3 aa 121-140
T2 peptide: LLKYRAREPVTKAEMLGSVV
Method: as §1, §2

MAGEA3 peptide no 18 = molecular target: T3, MAGEA3 peptide no 18; experiment: peptide ELISA (coated 20mer)
T3 construct: also called MAGEA3 aa 171-190
T3 peptide: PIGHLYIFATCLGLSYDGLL
Method: as §1, §2

MAGEA3 peptide no 19 = molecular target: T4, MAGEA3 peptide no 19; experiment: peptide ELISA (coated 20mer)
T4 construct: also called MAGEA3 aa 181-200
T4 peptide: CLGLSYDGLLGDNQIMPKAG
Method: as §1, §2

MAGEA3 peptide no 2 = molecular target: T5, MAGEA3 peptide no 2; experiment: peptide ELISA (coated 20mer)
T5 construct: also called MAGEA3 aa 11-30
T5 peptide: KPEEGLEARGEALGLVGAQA
Method: as §1, §2

MAGEA3 peptide no 20 = molecular target: T6, MAGEA3 peptide no 20; experiment: peptide ELISA (coated 20mer)
T6 construct: also called MAGEA3 aa 191-210
T6 peptide: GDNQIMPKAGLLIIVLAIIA
Method: as §1, §2

MAGEA3 peptide no 23 = molecular target: T7, MAGEA3 peptide no 23; experiment: peptide ELISA (coated 20mer)
T7 construct: also called MAGEA3 aa 221-240
T7 peptide: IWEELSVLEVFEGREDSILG
Method: as §1, §2

MAGEA3 peptide no 25 = molecular target: T8, MAGEA3 peptide no 25; experiment: peptide ELISA (coated 20mer)
T8 construct: also called MAGEA3 aa 241-260
T8 peptide: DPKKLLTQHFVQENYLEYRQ
Method: as §1, §2

MAGEA3 peptide no 27 = molecular target: T9, MAGEA3 peptide no 27; experiment: peptide ELISA (coated 20mer)
T9 construct: also called MAGEA3 aa 261-280
T9 peptide: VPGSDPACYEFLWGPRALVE
Method: as §1, §2

MAGEA3 peptide no 29 = molecular target: T10, MAGEA3 peptide no 29; experiment: peptide ELISA (coated 20mer)
T10 construct: also called MAGEA3 aa 281-300
T10 peptide: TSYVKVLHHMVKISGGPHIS
Method: as §1, §2

MAGEA3 peptide no 3 = molecular target: T11, MAGEA3 peptide no 3; experiment: peptide ELISA (coated 20mer)
T11 construct: also called MAGEA3 aa 21-40
T11 peptide: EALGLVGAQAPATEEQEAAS
Method: as §1, §2

MAGEA3 peptide no 31 = molecular target: T12, MAGEA3 peptide no 31; experiment: peptide ELISA (coated 20mer)
T12 construct: also called MAGEA3 aa 295-314
T12 peptide: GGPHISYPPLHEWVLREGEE
Method: as §1, §2

MAGEA3 peptide no 8 = molecular target: T13, MAGEA3 peptide no 8; experiment: peptide ELISA (coated 20mer)
T13 construct: also called MAGEA3 aa 71-90
T13 peptide: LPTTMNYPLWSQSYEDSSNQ
Method: as §1, §2

MAGEA3 peptide no 5 = molecular target: T14, MAGEA3 peptide no 5; experiment: ELISA on plate-coated 20mer peptide, antibody at 1 µg/ml, anti-human IgG Fc-HRP [Figure 1]
T14 construct: also called MAGEA3 aa 41-60
T14 peptide: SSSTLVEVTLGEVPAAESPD
Method: as §1, §2

MAGEA3 peptide no 6 = molecular target: T15, MAGEA3 peptide no 6; experiment: as above
T15 construct: also called MAGEA3 aa 51-70
T15 peptide: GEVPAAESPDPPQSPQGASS
Method: as §1, §2

B1: 32H2 (antibody, V domains shown)
VH: QVQLVESGGGVVQPGRSLRLSCAASGFTFSSNAMHWVRQAPGKGLEWVAVISHDGSNKYYADSVKGRFTISRDNSKNTLYLQMNSLRAEDTAVYYCARDGSGSYFNLDYWGQGTLVTVSS
VL: QSALTQPASVSGSPGQSITISCTGTSSDVGGYNYVSWYQQHPGKAPKLMIYEVSNRPSGVSNRFSGSKSGNTASLTISGLQAEDEADYYCSSYTSSSTLVFGTGTKVTVL
notes: Patient-derived human antibody made recombinantly; also called human monoclonal antibody 32H2
B1: no binding (tested: 1 µg/ml) (MAGEA3 peptide no 1); no binding (tested: 1 µg/ml) (MAGEA3 peptide no 13); no binding (tested: 1 µg/ml) (MAGEA3 peptide no 18). B1: no binding (tested: 1 µg/ml) (MAGEA3 peptide no 19); no binding (tested: 1 µg/ml) (MAGEA3 peptide no 2); no binding (tested: 1 µg/ml) (MAGEA3 peptide no 20). B1: no binding (tested: 1 µg/ml) (MAGEA3 peptide no 23); no binding (tested: 1 µg/ml) (MAGEA3 peptide no 25); no binding (tested: 1 µg/ml) (MAGEA3 peptide no 27). B1: no binding (tested: 1 µg/ml) (MAGEA3 peptide no 29); no binding (tested: 1 µg/ml) (MAGEA3 peptide no 3); no binding (tested: 1 µg/ml) (MAGEA3 peptide no 31). B1: no binding (tested: 1 µg/ml) (MAGEA3 peptide no 8).

B2: 102G10 (antibody, V domains shown)
VH: EVQLVESGGGLVKPGGSLRLSCAASGFTFSGNSMNWVRQAPGKGLEWVSSISSSSGYIYYADSVKGRFTVSRDNAKNSLYLQMNSLRAEDTAVYYCATWPVTTARVGYWGQGTLVTVSS
VL: QSVLTQPPSASGTPGQRVTISCSGSSSNIGSNYVYWHQQLPGTAPKLLIYRHDQRPSGVPDRFSGSKSGTSASLAISGLRSEDEADYYCAAWDDSLSAWVFGGGTKLTVL
notes: Patient-derived human antibody made recombinantly; also called human monoclonal antibody 102G10
B2: binds (MAGEA3 peptide no 5).

B3: 34G9 (antibody, V domains shown)
VH: EVQLEESGGDLVQPGGSLRLSCAASGFTFSHYWMHWVRQAPGKGLVWVSRINSDGSSTSYADSVKGRFTISRDNAKNTLYLQMNSLRAEDTAVYYCARIGSDGYNYDFWGQGTLVTVSS
VL: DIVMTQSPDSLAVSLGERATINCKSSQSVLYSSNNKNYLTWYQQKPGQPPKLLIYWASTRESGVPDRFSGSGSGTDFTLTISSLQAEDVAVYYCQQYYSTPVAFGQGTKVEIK
notes: Patient-derived human antibody made recombinantly; also called human monoclonal antibody 34G9
B3: binds (MAGEA3 peptide no 6).
